Assay results from article PMC2494995, “The central proline rich region of POB1/REPS2 plays a regulatory role in epidermal growth factor receptor endocytosis by binding to 14-3-3 and SH3 domain-containing proteins” (BMC Biochemistry, 2008).
One block for each molecule: values may come before it.

Columns and labels:
[1] = molecular target: POB1 phospho-peptide 347KTHSRASpSLDLNKVF361 (human); assay: peptide or protein array; SPOT peptides on a cellulose membrane; GST fusion proteins (10 micrograms/ml) in PBS/BSA 5%; anti-GST antibody, peroxidase labeled secondary antibody, chemiluminescence in arbitrary units
[2] = molecular target: POB1 fifteenmer peptide 338-352 with Pro345 replaced by alanine (human); assay: as above
[3] = molecular target: POB1 fifteenmer peptide 338-352 with Pro343 replaced by alanine (human); assay: as above
[4] = molecular target: T1, GST-SH3 of Amphiphysin II (UniProt O00499 520-593); assay: pull-down; GST or GST fusion proteins (100 μg) adsorbed to glutathione-sepharose 4B beads, two hours at 4°C with 1 mg of HEK293 cellular extract in JS lysis buffer (50 mM Hepes, 150 mM NaCl, 1% Triton-X100); washed three times in ice-cold PBS; Western blot
T1 construct: Amphiphysin II, SH3 domain; cloned into the SalI and BglII sites of pYEX (modified pGEX-2TK); also called AmphIISH3; GST-Amphiphysin II SH3; source: expressed in bacteria; on glutathione-Sepharose 4B beads (pull-down) or purified (peptide arrays)
T1 sequence (looked up): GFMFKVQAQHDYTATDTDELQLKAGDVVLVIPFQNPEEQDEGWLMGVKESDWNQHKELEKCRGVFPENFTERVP

[5] = molecular target: GST-SH3 carboxy-terminal of Grb2; assay: as above
[6] = molecular target: 14-3-3 sigma (UniProt P31947); assay: SPOT peptide array, GST-14-3-3 sigma overlay
[7] = molecular target: POB1 fifteenmer peptide 338-352 with proline 339 replaced by alanine (human); assay: peptide or protein array; SPOT peptides on a cellulose membrane; GST fusion proteins (10 micrograms/ml) in PBS/BSA 5%; anti-GST antibody, peroxidase labeled secondary antibody, chemiluminescence in arbitrary units
[8] = molecular target: T1, GST-SH3 of Amphiphysin II; assay: as above; details: both partners purified

Molecule: GST-14-3-3 sigma (from UniProt P31947 1-248) (natural protein)
signal intensity (arbitrary units (a.u.)) [1]: 8500

Molecule: GST-SH3 carboxy-terminal of Grb2 (domain or fragment)
percent of the binding to the unmutated peptide [2]: 30%
percent of the binding to the unmutated peptide [3]: 30%

Molecule: POB1/REPS2 15-mer centred on Ser322 (from UniProt Q8NFH8) pS322 peptide (No. 196)
other: spot intensity ([6]; reference: unphosphorylated peptide (No. 232), sites S322): none in both; reference 1400

B1: GST-SH3 of Amphiphysin II (domain or fragment)
chain: T1 sequence (looked up)
percent of the binding to the unmutated peptide [7]: 31%

B2: POB1 fifteenmer peptide 338PPTPPPRPQKTHSRA352 (peptide)
peptide: PPTPPPRPQKTHSRA
notes: numbers count on: isoform 2, Q8NFH8-2; source: SPOT synthesis on a cellulose membrane
binding result [8]: binds

Results, then the molecule that gave them:

percent of the input bound [4]: 25%
percent of the input bound [5]: 4%
Molecule: Myc-tagged POB1 (full length) (natural protein)

other: spot intensity ([6]; reference: unphosphorylated peptide (No. 238), sites S354): gained; reference 991
Molecule: POB1/REPS2 347-361 (from UniProt Q8NFH8) pS354 peptide
